Data taken from the RNAGym collection of RNA variant scans (doi:10.1073/pnas.2313332121).
Fewer inactive variants are shown than the library holds.

B1: TPR 5TU (parent)
chain: GGAUCUUCUCGAUCUAACAAAAAAGACAAAUCUGCCACAAAGCUUGAGAGCAUCUUCGGAUGCAGAGGCGGCAGCCUUCGGUGGCGCGAUAGCGCCAACGUUCUCAACUAUGACACGCAAAACGCGUGCUCCGUUGAAUGGAGUUUAUCAUG

Variants of: B1
Experiment: polymerase ribozyme fitness, log enrichment relative to wild type (log ratio); higher = more active; in vitro selection for triplet polymerase activity
Outline: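 Input and output libraries were sequenced on Illumina after a single in vitro selection round, run in triplicate on PCR-built, transcribed mutant libraries of each subunit of a heterodimeric triplet polymerase ribozyme. Selection annealed libraries to a biotinylated primer, the partner subunit and triplets, incubated them frozen at −7 °C, then gel-excised extended constructs for streptavidin-bead capture and RT-PCR. Genotypes with ≥10 input reads and ≥1 read per output were kept. Fitness is the logarithm, taken in base 2, of genotype enrichment divided by wild-type enrichment, using inverse-variance-weighted replicate averages.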

Variant | polymerase ribozyme fitness (log ratio)
GGAUCUUCUCGAUCUAACAAAAAAGACAAAUCUGCCACUAAGCUUGAGAGCAUCUUCGGAUGCAGAGGCGGAAGCCUUCGGUAGCGCGAUAGCGCCAACGUUCUCAACUAUGACACGCAAAACGCGUGCUCCGUUGUAUGGAGUUUAUCAUG | ≤ -4.2
GGAUCUUCUCGAUCUAACAAAAAAGACAAAUCUGCCACAAAGCUUGAGCGCAUCUUCGGAUGCAGAGGCGGCAGCCUUCGGUGGCGCUAUAGCGCGAACGUUCUCAACUAUGACUCGCAAAACGCGUGCUCCGUUGAAUGGAGUUUAGCAUG | ≤ -4.2
GGGUCUUCUCGAUCUAACAAAAAAGACAAAUCUGCCACAAAGCUUGAGACCAUCUUCGGAUGCAGAGGCGGCAGCCUUCGGUGGCGCGAUAGCGCCAACGUUCUCAACUAUGACACGCAGAACGCGUGAUCCGUUGAAUGGAGUUUAUCAUG | ≤ -4.2
GGAUCUUCUCGAUCUAACAAAAAAGACAAAUCUGCCACAGAGCUUGAGAGCAUCUUCGGAUGCAGAGGCGGCAGGCUUCGGUGGCGCGAUAGCGCCAACGUUCUCAACUAUGACACGCAAAACGCGUGCUCCGUUGAAUGGAGUUUAUCAUG | -4.09
GGAUCUUCUCGAUCUAACAAAAAAGACAAAUCUGCCACAAAGCUUGAGAGCAUCUUCGGAUGCAGAGGCGGCAGCCUUCGGUGGCGCGAUAGCGCCAACGUUCUCGACUAUGACACGCAAAACGCGUGCUCCGUUGAAUGGAGUUAAUCAUG | -0.139
GGAUCUUCUCGAUCUAACAAAAAAGACAAAUCUGCCACAAAGCUUGAGAGCAUCUUCGGAUGCAGAGGCGGCGGCCUUUGGUGGCGCGAUAGCGCUAACGUUCUCAACUAUGACACGCAAAACGCGUGCUCCGUUGAAUGGUGUUUAUCAUG | ≤ -4.2
GGAUCUUCUCGAUCUAACAAAGAAGACAAACCUGCCACAAAGCAUGAGAGCAUCUUCGGAUGCAGAGGCGGCAGCCUUCGGUGGCGCGAUAGCGGCAACGUUCUCAACUAUGACACGCAAAACGCGUGCUCCGUUGAAUGGAGUUUAUCGUG | ≤ -4.2
GGAUCUUCUCGAUCUAACAAAAAAGACAAAUCUGCCACAAAGCUUGAGAGCAUCUUCGGAUGCAGAGGCGGCAGCCUUCGGUGUCGCGAUAGCGCCAACGUGCUCAACUAUGACACGCAAAACGCGUGCUCCGUUGAAUGGAGUUUAUCAUG | -4.16
GGAUCUUCUCGAUCUAACAAAAAAGCCAAAUCUGCCACAAAGCUUGGGAGCAUCUUCGGAUGAAGAGGCGGCAGCCUUCGGUGGCGCGAUCGCGCCUGCGUUCUCAACUAUGACACGCAAAACGCGUGCUCCGUUGAUUGGAGUUUAUCAUG | ≤ -4.2
GGAUCUUCUCGAUCUAACAAAAAAGACAAAUCUGCCACAAAGCUUGAGAGCAUCUUCGGAUGAAGAGGCGGCAGCCUUCGGUGGCGCGAUAGCGCCAACGUUCUCAACUAUGACACGCAUAACCCGUGCUCCGUUGAAUGGAGUUUAUCAUG | -2.49
GGAUCAUCUCGAUCUAACAAAAAAGACAAAUCUGCCACAAAGCUUGAGAGCAUCUUCGGAUGCAGAGGCGGCAGCCUUCGGUGGUGCGAUAGCGCCAACGUUCUCAACUAUGACACGCAAAACGCGUGCUCCGUUGAAUGGAGUUUAUCAUG | -0.519
GGAUCUUCUCGAUCUAACAAAAAAGACAAAUCUGCCACAAAGCUUGAGAGCCUCUUCGGAUGCAGAGGCGGCAGCCUUCGGUGGCGCGAUUGCGCCAACGUUCUCAACUAUGACACGCAAAACGCGUGCUCCGUUGAAUGGAGUUUAACAUG | ≤ -4.2
GGAUCUUCUCGAUCUAACAAAAAAGACAAAUCUGCCACAAAGCUUGAGAGCAUCUUCGGAGGCAGAGGCGGCAGGCUUCGGUGGCGCUUUAGCGCCAACGAUCUCAACUAUGACACGCAAAACGCGUGCUCCGUUGAAUCGAGUUUAUCAUG | ≤ -4.2
GGAUCUUCUCGAUCUAACAAAAAAGAGAAAUCUGCCACAAAGCUUGAGCUCAUUUUCGGAUGCAGAGGCGGCAGCCUUCGGUGGCGGGAUAGCGCCAACGUUCUCAACUAUGACACGCAAAACGCGUGCUCCGUUGAAUGGAGUUUAUCAUG | ≤ -4.2
GGAUCUUCUCGAUCUAACAAAAAAGACAAAUCUGCCACAGAGCUUGAGAGCAUCUUCGAAUGCAGAGGCGGCAGCCUUCGGUGGCGCGAUAGAGCCAACGUUCUCAACUAUGACACGCAAAACGCGUGCUCCGUUGAAUGGAGUUUAUCAUG | -4.07
GGAUCCUCUCGAUCUAACCAAAAAGGCAAAUCUGCCACAAAGCUUGAGAGCAUCUUCGGAUGCAGAGGCGGCAGCCUUCGGUGGGGCGAUAGCGCCAACGUUCUCAAAUAUGACACGCAAAACGCGUGCUCCGUUGAAUGGAGUUUAUCAUG | ≤ -4.2
GGAUCUUCUCGAUCUAACAAAAAAGACAAAUCUGCCACAAAGCUUGAGAGCAUCUUCGGAUGCAGAGGCGGCAGUCUUCCGUGGCGCGAUAGCGCCAACGUUCUCAUCUAUGACACGCAAAACGCGUGCUCCGUUGAAUGGAGUUUAUCAUG | ≤ -4.2
GGAUCUUCUCGAUCUAACAAAAAAGACAAAUCUGCCACAAAGCUUGAGAGCAUCUUCGGAUGCAGAGGCGGCAGCCUUCGGUGGAGCGAUAGCGCCAACGUUCUCAACUAUGACACGCAAAACGCGUGCUCCGCUGAAUGGAGUUUAUCAUG | -0.169
GGGUCUUCUCGAUCUAACAAAAAAGACAAGUCUGCCAAAAAGCUUGAGAGCAUCUUCGGAUGCAGAGGCGGCAGCCUUCGGUAGCGCGAUAGCGCCAACGGUCUCAACUAUGACACGCAAAACGCGUGCUCCGUUGAAUGGAGUUUAUCAUG | ≤ -4.2
